Laboratory results taken from US20220288176.
Like-named read-outs stand apart in the source and are kept apart here.

Experiments:
[1] = tested on: YTHDF2 (Homo sapiens); conditions: co-localization with RIG-I and YTHDF2 in HeLa
[2] = tested on: RIG-I (Homo sapiens); conditions: immunofluorescence co-localization with RIG-I and K63-polyubiquitin in HeLa

Substance | activity ([1]; 10% m6A random) [%] | activity [1] [%] | activity [2] [%]
10% m6A circFOREIGN | 65.3 | – | –
FITC-circFOREIGN | – | 33.8 | 85.5
